Key:
[1] = molecular target: T1, mouse IL1RAP ECD displayed on HEK-293F cells (pDisplay) (mouse, UniProt Q61730 21-367); assay: MSD cell binding, HEK-293F Mouse clone 5 cells displaying mouse IL1RAP ECD
T1 sequence: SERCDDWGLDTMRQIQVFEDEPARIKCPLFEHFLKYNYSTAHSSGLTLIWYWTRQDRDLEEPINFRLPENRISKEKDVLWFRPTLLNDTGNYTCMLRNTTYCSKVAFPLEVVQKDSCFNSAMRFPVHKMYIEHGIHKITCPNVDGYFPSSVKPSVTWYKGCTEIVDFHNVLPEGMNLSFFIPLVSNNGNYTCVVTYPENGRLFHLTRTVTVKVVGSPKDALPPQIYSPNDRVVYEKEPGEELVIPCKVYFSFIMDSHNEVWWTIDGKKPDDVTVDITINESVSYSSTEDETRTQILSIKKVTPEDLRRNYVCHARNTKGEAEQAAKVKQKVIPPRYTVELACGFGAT
Procedure: Cells were immobilized and IL1RAP antibody samples were assayed in triplicate. Briefly, expression supernatants of purified IL1RAP antibodies were normalized to 10 μg/mL. 5000 cells per well were plated into a 384 well plate (MA6000, cat. L21XB, MSD) and allowed to adhere for 2 hr. Cells were then blocked with 20% FBS in PBS (Gibco) for 15 mins. Antibody supernatants were then added and left at RT for 1 hr. Cells were washed 3 times with PBS and a ruthenium labeled secondary antibody (Mesoscale Discovery) was then added at 2 μg/mL and incubated for 1 hour at room temperature. A further washing step was then applied and 35 μL per well of 2×MSD Read buffer T (surfactant free) was then added and incubated for 5-30 minutes for detection. Plates were then read using Sector Imager 2400 (MSD). Data was normalized to controls and graphed using GraphPad Prism Version 5. A positive binder was determined to be a hit with a signal 3× greater than parental cell line background.
The MSD cell binding assay described in Example 4 was used to assess IL1RAP binding.

[2] = molecular target: T2, human IL1RAP on cells (endogenous) (human, UniProt Q9NPH3 21-570); assay: cell-based or functional assay
T2 sequence (looked up): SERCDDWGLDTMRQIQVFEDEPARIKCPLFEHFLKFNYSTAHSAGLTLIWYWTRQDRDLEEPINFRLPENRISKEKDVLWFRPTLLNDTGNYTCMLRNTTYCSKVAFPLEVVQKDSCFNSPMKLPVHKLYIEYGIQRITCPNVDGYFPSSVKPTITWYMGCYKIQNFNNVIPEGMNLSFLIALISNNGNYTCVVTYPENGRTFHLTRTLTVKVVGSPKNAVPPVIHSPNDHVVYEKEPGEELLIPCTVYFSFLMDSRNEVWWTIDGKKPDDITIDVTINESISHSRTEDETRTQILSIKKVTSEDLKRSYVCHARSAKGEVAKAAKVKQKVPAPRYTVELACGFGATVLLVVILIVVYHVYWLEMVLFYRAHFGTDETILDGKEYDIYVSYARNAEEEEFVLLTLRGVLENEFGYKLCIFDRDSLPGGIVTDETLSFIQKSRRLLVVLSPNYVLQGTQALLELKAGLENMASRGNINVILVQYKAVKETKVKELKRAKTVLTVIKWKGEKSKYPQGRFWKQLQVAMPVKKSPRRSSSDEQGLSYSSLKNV

[3] = molecular target: T3, human FcγRIIb (human, UniProt P31994 43-217, limits assumed); assay: AlphaScreen competition, human FcγRIIb (n=1); displaced: biotinylated control mAb B21M hIgG1 WT; pH 7.2
T3 construct: GST-tagged
T3 sequence (looked up): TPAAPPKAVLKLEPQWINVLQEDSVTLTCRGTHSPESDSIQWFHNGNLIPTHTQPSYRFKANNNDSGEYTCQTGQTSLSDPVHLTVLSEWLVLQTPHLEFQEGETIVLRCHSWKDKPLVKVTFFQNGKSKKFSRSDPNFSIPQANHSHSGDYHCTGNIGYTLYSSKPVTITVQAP
Excerpt: (§1) Measurements were made using an AlphaScreen™ assay (Amplified Luminescent Proximity Homogeneous Assay (ALPHA), PerkinElmer, Wellesley, Mass.), a bead-based luminescent proximity assay. Laser excitation of a donor bead excites oxygen, which if sufficiently close to the acceptor bead generates a cascade of chemiluminescent events, ultimately leading to fluorescence emission at 520-620 nm.

[4] = molecular target: T2, human IL1RAP on cells (endogenous); assay: cell-based or functional assay; remark: listed apart in the source
[5] = molecular target: T4, human FcRn (human, UniProt P55899 24-297; P61769 21-119, limits assumed); assay: AlphaScreen competition, human FcRn (n=1); displaced: biotinylated control mAb B21M WT IgG1 (m27); pH 6.0
T4 construct: GST-tagged
Excerpt: as §1

[6] = molecular target: T2, human IL1RAP on cells (endogenous); assay: cell-based or functional assay; remark: listed apart in the source

- binding result [1]: no binding (tested: 100 µg/mL)
- binding result [3]: binds
- mean EC50, T-cell activation, OCI-AML5 cells in whole blood, 48 h [4]: 5.99 nM
- IC50 (read off the curve) [5]: ~200 nM
- EC50, caspase area/well AUC, Calu-3 with T cells, 72 h [6]: 0.716 nM
- EC50, caspase area/well AUC, DU145 with T cells, 72 h [6]: 0.445 nM
- EC50, caspase area/well AUC, H196 with T cells, 72 h [6]: 0.019 nM
- EC50, caspase area/well AUC, H226 with T cells, 72 h [6]: 0.134 nM
- EC50, caspase area/well AUC, H716 with T cells, 72 h [6]: 0.004 nM
- EC50, caspase area/well AUC, H1975 with T cells, 72 h [6]: 0.013 nM
- EC50, caspase area/well AUC, H2172 with T cells, 72 h [6]: 0.039 nM
- EC50, caspase area/well AUC, H2228 with T cells, 72 h [6]: 0.043 nM
- EC50, caspase area/well AUC, LNCAP with T cells, 72 h [6]: 0.039 nM
- EC50, caspase area/well AUC, PC3 with T cells, 72 h [6]: 0.102 nM
- EC50, caspase area/well AUC, Panc0213 with T cells, 72 h [6]: 0.192 nM
- EC50, caspase area/well AUC, Panc0327 with T cells, 72 h [6]: 0.181 nM
- EC50, caspase area/well AUC, SKMES-1 with T cells, 72 h [6]: 0.031 nM
- EC50, caspase area/well AUC, SW1271 with T cells, 72 h [6]: 0.078 nM
B1: IC3B19 (bispecific antibody, human IgG4 S228P, kappa, lambda, F234A L235A)
heavy 1: EVQLVESGGGLVQPGGSLRLSCAASGFTFNTYAMNWVRQAPGKGLEWVARIRSKYNNYATYYAASVKGRFTISRDDSKNSLYLQMNSLKTEDTAVYYCARHGNFGNSYVSWFAYWGQGTLVTVSSASTKGPSVFPLAPCSRSTSESTAALGCLVKDYFPEPVTVSWNSGALTSGVHTFPAVLQSSGLYSLSSVVTVPSSSLGTKTYTCNVDHKPSNTKVDKRVESKYGPPCPPCPAPEAAGGPSVFLFPPKPKDTLMISRTPEVTCVVVDVSQEDPEVQFNWYVDGVEVHNAKTKPREEQFNSTYRVVSVLTVLHQDWLNGKEYKCKVSNKGLPSSIEKTISKAKGQPREPQVYTLPPSQEEMTKNQVSLTCLVKGFYPSDIAVEWESNGQPENNYKTTPPVLDSDGSFLLYSKLTVDKSRWQEGNVFSCSVMHEALHNHYTQKSLSLSLGK
light 1: QTVVTQEPSLTVSPGGTVTLTCRSSTGAVTTSNYANWVQQKPGQAPRGLIGGTNKRAPGTPARFSGSLLGGKAALTLSGVQPEDEAEYYCALWYSNLWVFGGGTKLTVLGQPKAAPSVTLFPPSSEELQANKATLVCLISDFYPGAVTVAWKADSSPVKAGVETTTPSKQSNNKYAASSYLSLTPEQWKSHRSYSCQVTHEGSTVEKTVAPTECS
heavy 2: not shown
light 2: DIQLTQSPSFLSASVGDRVTITCRASQGISSYLAWYQQKPGKAPKLLIYAASTLQSGVPSRFSGSGSGTEFTLTISSLQPEDFATYYCQQVNSYPLTFGGGTKVEIKRTVAAPSVFIFPPSDEQLKSGTASVVCLLNNFYPREAKVQWKVDNALQSGNSQESVTEQDSKDSTYSLSSTLTLSKADYEKHKVYACEVTHQGLSSPVTKSFNRGEC
notes: IgG4-PAA, Fab arm exchange; also called IAPB57 x CD3B219; IL1RAP x CD3
- Average EC50, T-cell mediated cytotoxicity, ALL-SIL [2]: 0.004 nM
- Average EC50, T-cell mediated cytotoxicity, HPB-ALL [2]: 0.008 nM
- Average EC50, T-cell mediated cytotoxicity, LAMA-84 [2]: 0.001 nM
- Average EC50, T-cell mediated cytotoxicity, MEG-01 [2]: 0.002 nM
- mean EC50, cytotoxicity of OCI-AML5 cells in whole blood, 48 h [4]: 3.13 nM

— patent US20190270826A1 (Janssen / Centocor, published 2019)
